Patent publication US20140087995A1 (published 2014)
Numbered stars: 1 amine (or outer) side, 2 acyl side, 3 side chain; on linkers, the order of the positions; unused ones are H or OH. Bridge positions count the residues as written; N and C are the ends. Side chains are listed from the residue outwards. Ends that are not written are not given here. * marks the point of attachment. C20 diacid = O=C(O)CCCCCCCCCCCCCCCCCCC(=O)*; γGlu = O=C(O)[C@H](CCC(=O)[*:2])N[*:1]; AEEA = NCCOCCOCC(=O)O

T1: human calcitonin receptor (human, UniProt P30988 25-474)
T1 construct: whole, on cells; Assay used cell membranes of the transfected BHK cells; also called hCTR; hCT
T1 sequence (looked up): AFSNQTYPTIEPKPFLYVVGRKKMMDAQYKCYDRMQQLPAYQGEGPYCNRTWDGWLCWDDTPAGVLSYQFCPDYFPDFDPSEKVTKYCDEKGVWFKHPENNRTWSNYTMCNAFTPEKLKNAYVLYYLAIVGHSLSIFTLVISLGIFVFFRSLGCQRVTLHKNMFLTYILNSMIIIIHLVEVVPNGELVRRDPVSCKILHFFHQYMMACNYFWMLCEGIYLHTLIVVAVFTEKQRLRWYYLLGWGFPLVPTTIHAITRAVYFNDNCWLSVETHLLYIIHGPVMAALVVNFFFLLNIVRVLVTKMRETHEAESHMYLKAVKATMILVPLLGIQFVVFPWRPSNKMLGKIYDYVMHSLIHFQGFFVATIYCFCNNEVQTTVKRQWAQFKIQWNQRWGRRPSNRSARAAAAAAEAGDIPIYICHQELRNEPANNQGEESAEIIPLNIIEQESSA

B1: N^ε1-[2-[2-[2-(19-carboxynonadecanoylamino)ethoxy]ethoxy]acetyl]-[Arg17,Pro21,Pro27]-h-amylin (peptide)
peptide: K([AEEA-C20 diacid])CNTATCATQRLANFLRHSSPNFGAIPSSTNVGSNTY-NH2
modifications: disulfide 2-7; N-terminus assumed
SMILES: CC[C@H](C)[C@H](NC(=O)[C@H](C)NC(=O)CNC(=O)[C@H](Cc1ccccc1)NC(=O)[C@H](CC(N)=O)NC(=O)[C@@H]1CCCN1C(=O)[C@H](CO)NC(=O)[C@H](CO)NC(=O)[C@H](Cc1c[nH]cn1)NC(=O)[C@H](CCCNC(=N)N)NC(=O)[C@H](CC(C)C)NC(=O)[C@H](Cc1ccccc1)NC(=O)[C@H](CC(N)=O)NC(=O)[C@H](C)NC(=O)[C@H](CC(C)C)NC(=O)[C@H](CCCNC(=N)N)NC(=O)[C@H](CCC(N)=O)NC(=O)[C@@H](NC(=O)[C@H](C)NC(=O)[C@@H]1CSSC[C@H](NC(=O)[C@@H](N)CCCCNC(=O)COCCOCCNC(=O)CCCCCCCCCCCCCCCCCCC(=O)O)C(=O)N[C@@H](CC(N)=O)C(=O)N[C@@H]([C@@H](C)O)C(=O)N[C@@H](C)C(=O)N[C@@H]([C@@H](C)O)C(=O)N1)[C@@H](C)O)C(=O)N1CCC[C@H]1C(=O)N[C@@H](CO)C(=O)N[C@@H](CO)C(=O)N[C@H](C(=O)N[C@@H](CC(N)=O)C(=O)N[C@H](C(=O)NCC(=O)N[C@@H](CO)C(=O)N[C@@H](CC(N)=O)C(=O)N[C@H](C(=O)N[C@@H](Cc1ccc(O)cc1)C(N)=O)[C@@H](C)O)C(C)C)[C@@H](C)O
notes: Synthetic analogue; also called compound 43
B2: N^ε1-[2-[2-[2-[[(4S)-4-carboxy-4-(19-carboxynonadecanoylamino)butanoyl]amino]ethoxy]ethoxy]acetyl]-[Arg17,Pro21,Pro27]-h-amylin (peptide)
peptide: K([AEEA-γGlu-C20 diacid])CNTATCATQRLANFLRHSSPNFGAIPSSTNVGSNTY-NH2
modifications: disulfide 2-7; N-terminus assumed
SMILES: CC[C@H](C)[C@H](NC(=O)[C@H](C)NC(=O)CNC(=O)[C@H](Cc1ccccc1)NC(=O)[C@H](CC(N)=O)NC(=O)[C@@H]1CCCN1C(=O)[C@H](CO)NC(=O)[C@H](CO)NC(=O)[C@H](Cc1c[nH]cn1)NC(=O)[C@H](CCCNC(=N)N)NC(=O)[C@H](CC(C)C)NC(=O)[C@H](Cc1ccccc1)NC(=O)[C@H](CC(N)=O)NC(=O)[C@H](C)NC(=O)[C@H](CC(C)C)NC(=O)[C@H](CCCNC(=N)N)NC(=O)[C@H](CCC(N)=O)NC(=O)[C@@H](NC(=O)[C@H](C)NC(=O)[C@@H]1CSSC[C@H](NC(=O)[C@@H](N)CCCCNC(=O)COCCOCCNC(=O)CC[C@H](NC(=O)CCCCCCCCCCCCCCCCCCC(=O)O)C(=O)O)C(=O)N[C@@H](CC(N)=O)C(=O)N[C@@H]([C@@H](C)O)C(=O)N[C@@H](C)C(=O)N[C@@H]([C@@H](C)O)C(=O)N1)[C@@H](C)O)C(=O)N1CCC[C@H]1C(=O)N[C@@H](CO)C(=O)N[C@@H](CO)C(=O)N[C@H](C(=O)N[C@@H](CC(N)=O)C(=O)N[C@H](C(=O)NCC(=O)N[C@@H](CO)C(=O)N[C@@H](CC(N)=O)C(=O)N[C@H](C(=O)N[C@@H](Cc1ccc(O)cc1)C(N)=O)[C@@H](C)O)C(C)C)[C@@H](C)O
notes: Synthetic analogue; also called compound 41
B3: N^α1-[(4S)-4-carboxy-4-(19-carboxynonadecanoylamino)butanoyl]-[Glu14,Arg17,Pro21,Pro25,Pro28,Pro29]-h-amylin (peptide)
peptide: {C20 diacid-γGlu}-KCNTATCATQRLAEFLRHSSPNFGPILPPTNVGSNTY-NH2
modifications: disulfide 2-7
SMILES: CC[C@H](C)[C@H](NC(=O)[C@@H]1CCCN1C(=O)CNC(=O)[C@H](Cc1ccccc1)NC(=O)[C@H](CC(N)=O)NC(=O)[C@@H]1CCCN1C(=O)[C@H](CO)NC(=O)[C@H](CO)NC(=O)[C@H](Cc1c[nH]cn1)NC(=O)[C@H](CCCNC(=N)N)NC(=O)[C@H](CC(C)C)NC(=O)[C@H](Cc1ccccc1)NC(=O)[C@H](CCC(=O)O)NC(=O)[C@H](C)NC(=O)[C@H](CC(C)C)NC(=O)[C@H](CCCNC(=N)N)NC(=O)[C@H](CCC(N)=O)NC(=O)[C@@H](NC(=O)[C@H](C)NC(=O)[C@@H]1CSSC[C@H](NC(=O)[C@H](CCCCN)NC(=O)CC[C@H](NC(=O)CCCCCCCCCCCCCCCCCCC(=O)O)C(=O)O)C(=O)N[C@@H](CC(N)=O)C(=O)N[C@@H]([C@@H](C)O)C(=O)N[C@@H](C)C(=O)N[C@@H]([C@@H](C)O)C(=O)N1)[C@@H](C)O)C(=O)N[C@@H](CC(C)C)C(=O)N1CCC[C@H]1C(=O)N1CCC[C@H]1C(=O)N[C@H](C(=O)N[C@@H](CC(N)=O)C(=O)N[C@H](C(=O)NCC(=O)N[C@@H](CO)C(=O)N[C@@H](CC(N)=O)C(=O)N[C@H](C(=O)N[C@@H](Cc1ccc(O)cc1)C(N)=O)[C@@H](C)O)C(C)C)[C@@H](C)O
notes: Synthetic analogue; also called compound 6
B4: N^ε1-[(4S)-4-carboxy-4-[[(4S)-4-carboxy-4-(19-carboxynonadecanoylamino)butanoyl]amino]butanoyl]-[Asp14,Arg17,Pro21,Pro26,Asp35]-h-amylin (peptide)
peptide: K([γGlu-γGlu-C20 diacid])CNTATCATQRLADFLRHSSPNFGAPLSSTNVGSDTY-NH2
modifications: disulfide 2-7; N-terminus assumed
SMILES: CC(C)C[C@H](NC(=O)[C@H](CCCNC(=N)N)NC(=O)[C@H](CCC(N)=O)NC(=O)[C@@H](NC(=O)[C@H](C)NC(=O)[C@@H]1CSSC[C@H](NC(=O)[C@@H](N)CCCCNC(=O)CC[C@H](NC(=O)CC[C@H](NC(=O)CCCCCCCCCCCCCCCCCCC(=O)O)C(=O)O)C(=O)O)C(=O)N[C@@H](CC(N)=O)C(=O)N[C@@H]([C@@H](C)O)C(=O)N[C@@H](C)C(=O)N[C@@H]([C@@H](C)O)C(=O)N1)[C@@H](C)O)C(=O)N[C@@H](C)C(=O)N[C@@H](CC(=O)O)C(=O)N[C@@H](Cc1ccccc1)C(=O)N[C@@H](CC(C)C)C(=O)N[C@@H](CCCNC(=N)N)C(=O)N[C@@H](Cc1c[nH]cn1)C(=O)N[C@@H](CO)C(=O)N[C@@H](CO)C(=O)N1CCC[C@H]1C(=O)N[C@@H](CC(N)=O)C(=O)N[C@@H](Cc1ccccc1)C(=O)NCC(=O)N[C@@H](C)C(=O)N1CCC[C@H]1C(=O)N[C@@H](CC(C)C)C(=O)N[C@@H](CO)C(=O)N[C@@H](CO)C(=O)N[C@H](C(=O)N[C@@H](CC(N)=O)C(=O)N[C@H](C(=O)NCC(=O)N[C@@H](CO)C(=O)N[C@@H](CC(=O)O)C(=O)N[C@H](C(=O)N[C@@H](Cc1ccc(O)cc1)C(N)=O)[C@@H](C)O)C(C)C)[C@@H](C)O
notes: Synthetic analogue; also called compound 1
B5: N^ε1-[(4S)-4-carboxy-4-[[(4S)-4-carboxy-4-(19-carboxynonadecanoylamino)butanoyl]amino]butanoyl]-[Asp14,Arg17,Pro22,Pro26,Asp35]-h-amylin (peptide)
peptide: K([γGlu-γGlu-C20 diacid])CNTATCATQRLADFLRHSSNPFGAPLSSTNVGSDTY-NH2
modifications: disulfide 2-7; N-terminus assumed
SMILES: CC(C)C[C@H](NC(=O)[C@H](CCCNC(=N)N)NC(=O)[C@H](CCC(N)=O)NC(=O)[C@@H](NC(=O)[C@H](C)NC(=O)[C@@H]1CSSC[C@H](NC(=O)[C@@H](N)CCCCNC(=O)CC[C@H](NC(=O)CC[C@H](NC(=O)CCCCCCCCCCCCCCCCCCC(=O)O)C(=O)O)C(=O)O)C(=O)N[C@@H](CC(N)=O)C(=O)N[C@@H]([C@@H](C)O)C(=O)N[C@@H](C)C(=O)N[C@@H]([C@@H](C)O)C(=O)N1)[C@@H](C)O)C(=O)N[C@@H](C)C(=O)N[C@@H](CC(=O)O)C(=O)N[C@@H](Cc1ccccc1)C(=O)N[C@@H](CC(C)C)C(=O)N[C@@H](CCCNC(=N)N)C(=O)N[C@@H](Cc1c[nH]cn1)C(=O)N[C@@H](CO)C(=O)N[C@@H](CO)C(=O)N[C@@H](CC(N)=O)C(=O)N1CCC[C@H]1C(=O)N[C@@H](Cc1ccccc1)C(=O)NCC(=O)N[C@@H](C)C(=O)N1CCC[C@H]1C(=O)N[C@@H](CC(C)C)C(=O)N[C@@H](CO)C(=O)N[C@@H](CO)C(=O)N[C@H](C(=O)N[C@@H](CC(N)=O)C(=O)N[C@H](C(=O)NCC(=O)N[C@@H](CO)C(=O)N[C@@H](CC(=O)O)C(=O)N[C@H](C(=O)N[C@@H](Cc1ccc(O)cc1)C(N)=O)[C@@H](C)O)C(C)C)[C@@H](C)O
notes: Synthetic analogue; also called compound 3
B6: N{Alpha-1}-[(4S)-4-carboxy-4-(19-carboxynonadecanoylamino)butanoyl]-[Glu14,Arg17,Pro21,Pro27,Lys34]-h-amylin (peptide)
peptide: {C20 diacid-γGlu}-KCNTATCATQRLAEFLRHSSPNFGAIPSSTNVGKNTY-NH2
modifications: disulfide 2-7
SMILES: CC[C@H](C)[C@H](NC(=O)[C@H](C)NC(=O)CNC(=O)[C@H](Cc1ccccc1)NC(=O)[C@H](CC(N)=O)NC(=O)[C@@H]1CCCN1C(=O)[C@H](CO)NC(=O)[C@H](CO)NC(=O)[C@H](Cc1c[nH]cn1)NC(=O)[C@H](CCCNC(=N)N)NC(=O)[C@H](CC(C)C)NC(=O)[C@H](Cc1ccccc1)NC(=O)[C@H](CCC(=O)O)NC(=O)[C@H](C)NC(=O)[C@H](CC(C)C)NC(=O)[C@H](CCCNC(=N)N)NC(=O)[C@H](CCC(N)=O)NC(=O)[C@@H](NC(=O)[C@H](C)NC(=O)[C@@H]1CSSC[C@H](NC(=O)[C@H](CCCCN)NC(=O)CC[C@H](NC(=O)CCCCCCCCCCCCCCCCCCC(=O)O)C(=O)O)C(=O)N[C@@H](CC(N)=O)C(=O)N[C@@H]([C@@H](C)O)C(=O)N[C@@H](C)C(=O)N[C@@H]([C@@H](C)O)C(=O)N1)[C@@H](C)O)C(=O)N1CCC[C@H]1C(=O)N[C@@H](CO)C(=O)N[C@@H](CO)C(=O)N[C@H](C(=O)N[C@@H](CC(N)=O)C(=O)N[C@H](C(=O)NCC(=O)N[C@@H](CCCCN)C(=O)N[C@@H](CC(N)=O)C(=O)N[C@H](C(=O)N[C@@H](Cc1ccc(O)cc1)C(N)=O)[C@@H](C)O)C(C)C)[C@@H](C)O
notes: Synthetic analogue; also called compound 36

What was measured:
[1] = target: T1, human calcitonin receptor; assay: ratio IC50 hCTR / IC50 hAmylin-R of the two SPA competition assays; reference: human amylin receptor
Outline: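 IC₅₀ values were derived by one-site competition analysis of SPA counts. Cell membranes (35 ng/μL) with SPA beads were incubated with test compounds for 120 min at 25° C in Hepes buffer, pH 7.4, containing CaCl2, MgCl₂, OA and Tween20.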

[2] = target: T1, human calcitonin receptor; assay: SPA radioligand competition (125I-calcitonin), membranes of BHK cells with human calcitonin receptor
Outline: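 BHK hCTR membranes 35 ng/μL + SPA beads 0.05 mg/well; buffer 50 mM Hepes pH 7.4, 1 mM CaCl2, 5 mM MgCl₂, 0.1% OA, 0.02% Tween20. 120 min, 25° C., shaking. Scintillation count; IC50 by one-site binding competition.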

Row | Binder | Ratio hCT/hAmylin binding [1] | IC50 [2] [µM]
1 | B1 | 34.7 | 0.00264
2 | B2 | 49.9 | 0.0213
3 | B3 | 20 | 0.0199
4 | B4 | 27.6 | 0.0325
5 | B5 | 17.3 | 0.0195
6 | B6 | 15.7 | 0.0063
